Experimental data published in article PMC10771500, “Ton motor conformational switch and peptidoglycan role in bacterial nutrient uptake” (Nature Communications, 2024).
Changes are numbered by the printed parent chain. Names may count otherwise.

T1: periplasmic part of HasB from Serratia marcescens, residues 37-263 (HasB^(Sm, peri)) (Serratia marcescens, UniProt Q79AD1 37-263)
T1 construct: HasB, the TonB paralog of the Heme Acquisition System of Serratia marcescens, residues 37-263; 15N-labelled in the NMR experiment; also called HasB_(37-263, Sm); source: bacterial expression (20 h at 30 °C), purified (cation exchange, SEC)
T1 sequence (looked up): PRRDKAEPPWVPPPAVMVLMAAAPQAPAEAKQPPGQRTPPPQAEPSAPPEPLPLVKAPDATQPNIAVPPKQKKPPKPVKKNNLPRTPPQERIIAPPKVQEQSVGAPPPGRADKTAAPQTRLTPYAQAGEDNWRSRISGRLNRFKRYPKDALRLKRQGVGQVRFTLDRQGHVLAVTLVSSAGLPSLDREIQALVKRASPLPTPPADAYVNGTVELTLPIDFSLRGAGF

B1: periplasmic domain of ExbD from Serratia marcescens, residues 43-140 (ExbD^(Sm, peri)) (domain or fragment, UniProt V5YUQ0 43-140, looked up)
chain: VDIRVDLPASSAKPQPRPEKPVFLSVKADKQLYVGDQPVNADQLTSVLDQRTQANKETTIFFQADKSVDYETLMSVMDTLRKAGYLKVGLVGMEGAAK
notes: ExbD of Serratia marcescens (Has system), periplasmic domain, residues 43-140; 15N- or 13C,15N-labelled in the NMR samples; also called ExbD^(Sm, peri) wild type (wt); not shown: His-tag, N-terminal, cleaved
B2: ExbD^(Sm, peri) V47C (domain or fragment)
chain: B1 chain with V5C
modifications: disulfide bridge between the Cys 47 of the two subunits
notes: ExbD of Serratia marcescens, periplasmic domain, residues 43-140, with V47C; also called disulfide-bridged ExbD^(Sm, peri) V47C mutant; not shown: His-tag, N-terminal, cleaved
B3: periplasmic domain of ExbD from Escherichia coli, residues 43-141 (ExbD^(Ec, peri)) (domain or fragment, UniProt P0ABV2 43-141, looked up)
chain: VDVKVNLPASTSTPQPRPEKPVYLSVKADNSMFIGNDPVTDETMITALNALTEGKKDTTIFFRADKTVDYETLMKVMDTLHQAGYLKIGLVGEETAKAK
notes: ExbD of Escherichia coli, periplasmic domain, residues 43-141; not shown: His-tag, N-terminal, cleaved
B4: ExbD^(Ec, peri) V47C (domain or fragment, Escherichia coli, UniProt P0ABV2 43-141, looked up)
chain: B3 chain with V5C
modifications: disulfide bridge between the Cys 47 of the two subunits
notes: ExbD of Escherichia coli, periplasmic domain, residues 43-141, with V47C; not shown: His-tag, N-terminal, cleaved
B5: ExbD construct from E. coli lacking the N-terminal residues 43-60 (ExbD^(Ec, ΔNIBS)) (domain or fragment, Escherichia coli, UniProt P0ABV2 61-141, looked up)
chain: EKPVYLSVKADNSMFIGNDPVTDETMITALNALTEGKKDTTIFFRADKTVDYETLMKVMDTLHQAGYLKIGLVGEETAKAK
notes: ExbD of Escherichia coli, periplasmic domain (43-141) lacking the N-terminal residues 43-60; the limits 61-141 are worked out from these two statements; not shown: His-tag, N-terminal, cleaved

Assays:
[1] = target: T1, periplasmic part of HasB from Serratia …; test: NMR titration; 2D [1H-15N]-TROSY spectra of 15N-labeled HasB^(Sm, peri) or TonB^(Ec, peri) alone and upon addition of the unlabeled ExbD periplasmic domain; 293 K; conditions: both partners purified
[2] = target: the molecule itself; test: AUC; sedimentation velocity, 100 μM ExbD alone, 42000 rpm overnight, 50 mM sodium phosphate, 50 mM NaCl, pH 7.0; c(S) model in SEDFIT
[3] = target: the molecule itself; test: NMR spectra of a disulfide-bridged mutant; NMR fingerprint spectra of the V47C mutants compared with the wild type (Supplementary Fig. 7)
[4] = target: T2, periplasmic part of TonB from Escherichia coli, residues 34-239 (TonB^(Ec, peri)) (Escherichia coli, UniProt P02929 34-239); test: NMR titration; 2D [1H-15N]-TROSY spectra of 15N-labeled HasB^(Sm, peri) or TonB^(Ec, peri) alone and upon addition of the unlabeled ExbD periplasmic domain; 293 K; conditions: both partners purified
T2 construct: TonB of Escherichia coli, residues 34-239; 15N-labelled in the NMR experiment; not shown: His-tag, N-terminal, cleaved
T2 sequence (P02929 34-239): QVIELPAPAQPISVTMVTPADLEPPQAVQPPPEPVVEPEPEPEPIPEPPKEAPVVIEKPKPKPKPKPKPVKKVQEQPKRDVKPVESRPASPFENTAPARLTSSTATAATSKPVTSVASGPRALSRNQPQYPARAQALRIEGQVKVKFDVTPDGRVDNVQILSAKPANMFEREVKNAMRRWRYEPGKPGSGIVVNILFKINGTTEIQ

[5] = target: the molecule itself; test: AUC; sedimentation velocity, 100 μM ExbD^(Ec, peri) with 300 μM TonB peptide, 42000 rpm overnight, 50 mM sodium phosphate, 50 mM NaCl, pH 7.0
[6] = target: B5; test: crystal structure; 2 mM ExbD^(Ec, ΔNIBS) with 10 mM TonB peptide in 50 mM Tris-HCl, 50 mM NaCl, pH 7.0; crystals in 10% w/v glycerol and 3 M ammonium sulfate, 18 °C; 1.5 Å; conditions: both partners purified
[7] = target: B3; test: NMR titration; 2D [1H-15N]-HMQC spectra of 15N-labeled ExbD periplasmic domain with and without the HasB or TonB peptide; 293 K; conditions: both partners purified
[8] = target: the molecule itself; test: crystal structure; 2 mM ExbD^(Ec, ΔNIBS) with 10 mM TonB peptide in 50 mM Tris-HCl, 50 mM NaCl, pH 7.0; crystals in 10% w/v glycerol and 3 M ammonium sulfate, 18 °C; 1.5 Å

B1
binding result [1]: binds | stoichiometry N [2]: 2

B2
binding result [3]: binds

B3
binding result [4]: binds | stoichiometry N [5]: 2

B4
binding result [3]: binds

KKAQPISVTMVTPADLEPPQAKK (Probably a synthetic peptide) [TonB peptide (KKAQPISVTMVTPADLEPPQAKK)]
binding result [6]: binds | binding result [7]: binds

B5
binding result [8]: binds
